B1: F-tractinopt–mCherry fusion [rat] / F-actin (rabbit skeletal muscle α-actin filaments) [rabbit] (parent complex)
chain 1: APRRSVGELRLLFEARAASAA
chain 2: not shown

Variants of: B1
Assay: high-speed cosedimentation assay (SDS-PAGE densitometry); 2 µM F-tractin-mCherry; high-speed sedimentation, 120,000 g; actin 0-40 µM

Kd | Variant
23 µM | chain 1 R3A

Variants of: B1
Assay: high-speed cosedimentation assay (SDS-PAGE densitometry); 2 µM F-tractin-mCherry; high-speed sedimentation, 120,000 g; point at the highest actin level (40 µM total, about 39 µM free F-actin); read off a plot

response | Variant
~0.44 fraction of F-tractin bound | chain 1 R3A

Variants of: B1
Assay: high-speed cosedimentation assay (SDS-PAGE densitometry); 2 µM F-tractin-mCherry; high-speed sedimentation, 120,000 g; point at the highest actin level (40 µM total, about 40 µM free F-actin); read off a plot

response | Variant
~0.06 fraction of F-tractin bound | chain 1 F13A

Source: paper PMC11809415 (2025)
